Patent US11661461B2, “Phospho-Rab antibodies, assays and methods of use thereof” (Denali Therapeutics Inc., priority 2017, dated 2023)
Where a chain is given by its changes, count along the chain named. Entries after “also recorded” stand apart in the source; their conditions may differ. Each block holds one molecule with its values, some of them ahead of it.

Key:
LRRK2 = assay: 7 days of dosing in cynomolgus monkeys, pT73-Rab10 and pS935-LRRK2 western blot; format: in vivo, cynomolgus monkey; conditions: 45 mg/kg daily
Experimental: Phosphorylated Rab10 was also tested in cynomolgus monkey lung and kidney tissue following 7 days of dosing with a LRRK2 inhibitor. Cynomolgus monkeys were dosed daily with the LRRK2 Inhibitor C at a dose of 45 mg/kg. […] Signals from dosed groups were normalized to vehicle control group. Data were presented as mean with SEM.

[1] = target: T1, endogenous phosphorylated Rab10 in human PBMC (Homo sapiens, UniProt P61026); assay: Western blot of human PBMC with anti-pT73-Rab10 antibodies; format: binding; conditions: for detection of endogenous phosphorylated Rab10 signals in human PBMC by western blot: antibody at 1 ug/ml; for Western blot Human PBMC Ratio of DMSO/LRRK2 inhibitor A (mean ± SEM): band intensity normalized with Actin control for each of DMSO and LRRK2 inhibitor A, antibody 1 ug/ml
T1 construct: Strong endogenous phosphorylated Rab10 or phosphorylated Rab8a in human PBMC; host or cells: human PBMC
T1 sequence (P61026 1-200): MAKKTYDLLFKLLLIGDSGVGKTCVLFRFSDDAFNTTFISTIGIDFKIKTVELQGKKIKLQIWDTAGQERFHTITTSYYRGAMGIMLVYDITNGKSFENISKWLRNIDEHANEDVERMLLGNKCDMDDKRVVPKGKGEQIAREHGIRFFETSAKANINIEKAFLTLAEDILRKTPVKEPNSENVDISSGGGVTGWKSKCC

[2] = target: T2, phosphorylated Rab10 in lysates of HEK cells overexpressing LRRK2 (Homo sapiens, UniProt P61026); assay: Sandwich ELISA (diagnostic), HEK cells overexpressing LRRK2; format: binding; conditions: for Sandwich ELISA (diagnostic), Ratio: DMSO / LRRK2 inhibitor A RLU; for Sandwich ELISA (diagnostic) HEK cells overexpressing LRRK2, DMSO (RLU mean ± SD): DMSO treated cells; for Sandwich ELISA (diagnostic) HEK cells overexpressing LRRK2, LRRK2 inhibitor A (RLU mean ± SD): cells treated with LRRK2 inhibitor A
T2 construct: expressed in transfected cells; host or cells: HEK cells overexpressing LRRK2
T2 sequence (P61026 1-200): T1 sequence (P61026 1-200)
Experimental: Sandwich ELISA (Diagnostic) with Anti-Phospho-Rab10 Antibody as the Capture Antibody:
ELISA plates were prepared by coating white Nunc MaxiSorp 384 well plates (Thermo Fisher #460372/Sigma #P6491) with capture antibody for 1 hour at room temperature on a shaking platform. The capture antibody was purified anti-phospho-Rab10 clone 19-4 diluted to 1 ug/mL in carbonate-bicarbonate buffer, and 15 uL/well of coating solution was added to the plate before incubation. Plates were then washed 3× with TBST on a BioTek plate washer. For all subsequent blocking/incubation steps, Pierce Starting Block T20 (TBS) was used (Thermo Fisher #37543). Plates were blocked […] in this solution using 80 uL/well and washed 3× as before. Afterwards samples of cell lysates were added (neat with no dilution) using 30 uL/well and incubated 1 hour at room temperature on a shaking platform. After another 3× wash detection antibody (Creative Diagnostics DCABH 13141, or Abcam, ab104859, 2 ug/mL) was added using 30 uL/well. After 60 minute incubation at room temperature and washing 3×, the secondary anti-species conjugate was added (anti-rabbit HRP antibody (Jackson ImmunoResearch 111-035-144) diluted 1:20000 in assay diluent) at 30 uL/well. After a 60 minute incubation, plates were washed 3× as before. The HRP substrate (Supersignal ELISA Femto HRP substrate—Thermo Fisher #37075) was prepared during this time by mixing both components and equilibrating to room temperature. 50 uL/well of substrate was added to plates, which then were covered and briefly incubated for 1-2 minutes on a shaker platform. Afterwards plates were read on the Synergy plate reader to measure relative light units (RLU).
Sandwich ELISA (Diagnostic) with Anti-Rab10 (Total) Antibody as the Capture Antibody:
ELISA plates were prepared by coating white Nunc MaxiSorp 384 well plates (Thermo Fisher #460372/Sigma # P6491) with capture antibody overnight at 4° C. on a shaking platform. The capture antibodies (anti-Rab10 antibody from either Creative Diagnostics, DCABH-13141, or Abcam, ab104859) were diluted to […] (or 1:100 if the concentration not known) in carbonate-bicarbonate buffer, and 15 uL/well of coating solution was added to the plate before incubation. After this plates were washed 3× with TBST on a BioTek plate washer. For all subsequent blocking/incubation steps, Pierce Starting Block (TBS) (no Tween added) was used (Thermo Fisher #37542). Plates were blocked for 1 hour at room temperature in this solution using 80 uL/well and washed 3× as before. Afterwards samples were added (with lysates being diluted 1:20 in the assay diluent) using 30 uL/well and incubated 2 hours at room temperature on a shaking platform. After another 3× wash detection antibodies were added (diluted to 1 ug/mL for purified antibodies or 1:2 for supernatants) using 30 uL/well. After 90 minute incubation at room temperature and washing 3× the secondary anti-species conjugate was added (anti-rabbit HRP antibody (Jackson ImmunoResearch 111-035-144) diluted 1:20000 in assay diluent) at 30 uL/well. After a 45 minute incubation plates were washed 3× as before. The HRP substrate (Supersignal ELISA Femto HRP substrate—Thermo Fisher #37075) was prepared during this time by mixing both components and equilibrating to room temperature. 50 uL/well of substrate was added to plates, which then were covered and briefly incubated for 1-2 minutes on a shaker platform. Afterwards plates were read on the Synergy plate reader to measure relative light units (RLU).

[3] = target: T3, endogenous phosphorylated Rab8a in human PBMC (Homo sapiens, UniProt P61006); assay: Western blot of human PBMC with anti-pT72-Rab8a antibodies; format: binding; conditions: for detection of endogenous phosphorylated Rab8a signals in human PBMC by western blot: antibody at 1 ug/ml; for Western blot Human PBMC Ratio of DMSO/LRRK2 inhibitor A (mean ± SEM): band intensity normalized with Actin control for each of DMSO and LRRK2 inhibitor A, antibody 1 ug/ml
T3 construct: Strong endogenous phosphorylated Rab10 or phosphorylated Rab8a in human PBMC; host or cells: human PBMC
T3 sequence (P61006 1-207): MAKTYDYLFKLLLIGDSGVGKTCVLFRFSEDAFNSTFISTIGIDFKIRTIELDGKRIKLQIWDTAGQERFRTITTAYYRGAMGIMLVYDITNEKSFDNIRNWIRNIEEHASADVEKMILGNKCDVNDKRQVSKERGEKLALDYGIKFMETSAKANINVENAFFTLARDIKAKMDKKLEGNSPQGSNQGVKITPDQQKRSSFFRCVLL

pT73-Rab10 = target: T4, pT73-Rab10 (Homo sapiens, UniProt P61026); assay: Phospho-Rab10 MSD assay (clone 19-4 as capture antibody); format: binding; conditions: anti-total Rab10 antibody for detection
T4 construct: Strong endogenous phosphorylated Rab10 or phosphorylated Rab8a in human PBMC; host or cells: human PBMC
T4 sequence (P61026 1-200): T1 sequence (P61026 1-200)

[4] = normalized to actin and vehicle control group, mean with SEM, N = 4
[5] = normalized to vinculin and vehicle control group, mean with SEM, N = 4

Molecule: Cc1nn(C(C)(C)c2ncn(C)n2)cc1Nc1ncc(C(F)(F)F)c(C2CC2)n1 [LRRK2 Inhibitor C, 4-cyclopropyl-N-(3-methyl-1-(2-(1-methyl-1H-1,2,4-triazol-3-yl)propan-2-yl)-1H-pyrazol-4-yl)-5-(trifluoromethyl)pyrimidin-2-amine]
- dephosphorylation of pT73-Rab10 and pS935-LRRK2 (LRRK2; lung and kidney): significant dephosphorylation
- pT73-Rab10, Kidney (LRRK2; [4]): 0.547 ± 0.125
- pT73-Rab10, Lung (LRRK2; [4]): 0.189 ± 0.0562
- pS935-LRRK2, Kidney (LRRK2; [5]): 0.0563 ± 0.0147
- pS935-LRRK2, Lung (LRRK2; [5]): 0.102 ± 0.0215

- Western blot Human PBMC Ratio of DMSO/LRRK2 inhibitor A (mean ± SEM) [1]: 2.48 ± 0.31
- Sandwich ELISA (diagnostic), Ratio [2]: 33.74
- Sandwich ELISA (diagnostic) HEK cells overexpressing LRRK2, DMSO (RLU mean ± SD) [2]: 473585 ± 44210 RLU
- Sandwich ELISA (diagnostic) HEK cells overexpressing LRRK2, LRRK2 inhibitor A (RLU mean ± SD) [2]: 14037 ± 1627 RLU
B1: Clone 81-11: anti-phosphorylated (pT73) Rab10 rabbit monoclonal antibody; VH SEQ ID NO:21, VL SEQ ID NO:25 (antibody, V domains shown)
VH: METGLRWLLLVAVLKGVQCQSVEESGGRLVTPGTPLTLTCTVSGFSLSSYAMSWVRQAPGKGLEYIGLFNDVGIAYYANWAKGRFTFSKTSTTVDLKITSPTTEDTATYFCARVGGTTRVYGMDLWGPGTLVTVSS
VL: MDTRAPTQLLGLLLLWLPGATFAAVLTQTPSPVSAAVGGTVSISCQSSKSVRHNNYLSWYQQKPGQRPKLLIYGASTLASGVPSRFSGSGSGTEFTLTISDVQCDDAATYYCAGGYSGGGDDAFGGGTEVVVE
- detection of endogenous phosphorylated Rab10 signals in human PBMC by western blot [1]: detected endogenous phosphorylated Rab signals

- Western blot Human PBMC Ratio of DMSO/LRRK2 inhibitor A (mean ± SEM) [3]: 3.50 ± 0.52
B2: Clone 20: anti-phosphorylated (pT72) Rab8a rabbit monoclonal antibody; VH SEQ ID NO:63, VL SEQ ID NO:66 (antibody, V domains shown)
VH: METGLRWLLLVAVLKGVQCQSVEESGGRLVTPGTPLTLTCTVSGFSLSSYAMGWVRQAPGEGLEYFGIINTGGSAYYTNWAKGRFTISRTSTTVHLKITSPTTEDTATYFCARIAGDTRYYGMDPWGPGTLVTVSS
VL: B1 VL with H53N, S58A, R67P, S87K, E94Q, S117D, G120S, E133K
- detection of endogenous phosphorylated Rab8a signals in human PBMC by western blot ([3]; listed as 20): detected endogenous phosphorylated Rab signals

- pRab10 signals in phospho-Rab10 MSD assay (pT73-Rab10; human A549 cells, listed as 19-4): showed pRab10 signals
- pRab10 signals in phospho-Rab10 MSD assay (pT73-Rab10; human PBMCs): showed pRab10 signals
- Western blot Human PBMC Ratio of DMSO/LRRK2 inhibitor A (mean ± SEM) [1]: 2.95 ± 0.68
- Sandwich ELISA (diagnostic), Ratio [2]: 37.40
- Sandwich ELISA (diagnostic) HEK cells overexpressing LRRK2, DMSO (RLU mean ± SD) [2]: 80524 ± 7835 RLU
- Sandwich ELISA (diagnostic) HEK cells overexpressing LRRK2, LRRK2 inhibitor A (RLU mean ± SD) [2]: 2153 ± 774 RLU
B3: Clone 19-4: anti-phosphorylated (pT73) Rab10 rabbit monoclonal antibody; VH SEQ ID NO:17, VL SEQ ID NO:18 (antibody, V domains shown)
VH: METGLRWLLLVAVLKGVQCQSVEESGGRLVTPGTPLTLTCTVSGFSLSSYAMVWVRQAPGKGLEYIGLISRSGVTYYATWAKGRFTISKASTTVDLKIASPTTGDTATYFCVRDYDSAGWSGFTIWGPGTLVTVSA
VL: MDTRAPTQLLGLLLLWLPGAICDPVMTQTPSSTSAAVGGTVTINCQSSQSVYGNNYLSWYQQKPGQPPKLLIYKASTLASGVPSRFVGSGSGTQFTLTISDLECDDAATYYCAGAASDTRFFGGGTELVVN
- detection of endogenous phosphorylated Rab10 signals in human PBMC by western blot ([1]; listed as 19-4): detected endogenous phosphorylated Rab signals; also recorded: Detection of phosphorylated Rab10

- Western blot Human PBMC Ratio of DMSO/LRRK2 inhibitor A (mean ± SEM) [3]: 2.26 ± 0.12
B4: Clone 86-9: anti-phosphorylated (pT72) Rab8a rabbit monoclonal antibody; VH SEQ ID NO:81, VL SEQ ID NO:85 (antibody, V domains shown)
VH: METGLRWLLLVAVLKGVQCQSVEESGGRLVTPGTPLTLTCTVSGFSLSSYYITWVRQAPGKGLEWLGIMNAGTTVHYANWVKGRFAISKTSTTVDLKITSPTTEDTATYFCARARNSVWMDIWGPGTLVTVSL
VL: MDTRAPTQLLGLLLLWLPGATLAAVLTQTPSPVSGAVGGSVTVNCQSDKSVYRDNLAWYQQKPGQPPKLLIYKASTLASGVPSRFRGSGAGTQFTLTISDVQCDDAATYFCAGGYSSDSDTAFGGGTEVVVK
- detection of endogenous phosphorylated Rab8a signals in human PBMC by western blot [3]: detected endogenous phosphorylated Rab signals

- Western blot Human PBMC Ratio of DMSO/LRRK2 inhibitor A (mean ± SEM) [3]: 2.61 ± 0.42
B5: Clone 71-3: anti-phosphorylated (pT72) Rab8a rabbit monoclonal antibody; VH SEQ ID NO:71, VL SEQ ID NO:75 (antibody, V domains shown)
VH: METGLRWLLLVAVLKGVQCQSVEESGGRLVTPGTPLTLTCTASGFSLNVYYMTWVRQAPGKGLDWIGIINTDITVHYANWARGRFTISKTSTTVDLKITSPTTEDTATYFCARARNSAWMDIWGPGTLVTVSL
VL: MDTRAPTQLLGLLLLWLPGATFAAVLTQTPSPVSAAVGGTVTINCQSDWSVYNNNLAWYQHKPGQPPKLLIYKTSTLASGVPSRFRGSGSGTQFTLTISDVQCDDTATYYCAGGYYRDSDTAFGGGTEVVVK
- detection of endogenous phosphorylated Rab8a signals in human PBMC by western blot [3]: detected endogenous phosphorylated Rab signals
